Experimental data taken from PMC5435084.

Molecular target: Robo1-CC3 (UniProt Q9Y6N7)
Assay: SPR

Chain of Robo1-CC3 (Q9Y6N7 26-1651): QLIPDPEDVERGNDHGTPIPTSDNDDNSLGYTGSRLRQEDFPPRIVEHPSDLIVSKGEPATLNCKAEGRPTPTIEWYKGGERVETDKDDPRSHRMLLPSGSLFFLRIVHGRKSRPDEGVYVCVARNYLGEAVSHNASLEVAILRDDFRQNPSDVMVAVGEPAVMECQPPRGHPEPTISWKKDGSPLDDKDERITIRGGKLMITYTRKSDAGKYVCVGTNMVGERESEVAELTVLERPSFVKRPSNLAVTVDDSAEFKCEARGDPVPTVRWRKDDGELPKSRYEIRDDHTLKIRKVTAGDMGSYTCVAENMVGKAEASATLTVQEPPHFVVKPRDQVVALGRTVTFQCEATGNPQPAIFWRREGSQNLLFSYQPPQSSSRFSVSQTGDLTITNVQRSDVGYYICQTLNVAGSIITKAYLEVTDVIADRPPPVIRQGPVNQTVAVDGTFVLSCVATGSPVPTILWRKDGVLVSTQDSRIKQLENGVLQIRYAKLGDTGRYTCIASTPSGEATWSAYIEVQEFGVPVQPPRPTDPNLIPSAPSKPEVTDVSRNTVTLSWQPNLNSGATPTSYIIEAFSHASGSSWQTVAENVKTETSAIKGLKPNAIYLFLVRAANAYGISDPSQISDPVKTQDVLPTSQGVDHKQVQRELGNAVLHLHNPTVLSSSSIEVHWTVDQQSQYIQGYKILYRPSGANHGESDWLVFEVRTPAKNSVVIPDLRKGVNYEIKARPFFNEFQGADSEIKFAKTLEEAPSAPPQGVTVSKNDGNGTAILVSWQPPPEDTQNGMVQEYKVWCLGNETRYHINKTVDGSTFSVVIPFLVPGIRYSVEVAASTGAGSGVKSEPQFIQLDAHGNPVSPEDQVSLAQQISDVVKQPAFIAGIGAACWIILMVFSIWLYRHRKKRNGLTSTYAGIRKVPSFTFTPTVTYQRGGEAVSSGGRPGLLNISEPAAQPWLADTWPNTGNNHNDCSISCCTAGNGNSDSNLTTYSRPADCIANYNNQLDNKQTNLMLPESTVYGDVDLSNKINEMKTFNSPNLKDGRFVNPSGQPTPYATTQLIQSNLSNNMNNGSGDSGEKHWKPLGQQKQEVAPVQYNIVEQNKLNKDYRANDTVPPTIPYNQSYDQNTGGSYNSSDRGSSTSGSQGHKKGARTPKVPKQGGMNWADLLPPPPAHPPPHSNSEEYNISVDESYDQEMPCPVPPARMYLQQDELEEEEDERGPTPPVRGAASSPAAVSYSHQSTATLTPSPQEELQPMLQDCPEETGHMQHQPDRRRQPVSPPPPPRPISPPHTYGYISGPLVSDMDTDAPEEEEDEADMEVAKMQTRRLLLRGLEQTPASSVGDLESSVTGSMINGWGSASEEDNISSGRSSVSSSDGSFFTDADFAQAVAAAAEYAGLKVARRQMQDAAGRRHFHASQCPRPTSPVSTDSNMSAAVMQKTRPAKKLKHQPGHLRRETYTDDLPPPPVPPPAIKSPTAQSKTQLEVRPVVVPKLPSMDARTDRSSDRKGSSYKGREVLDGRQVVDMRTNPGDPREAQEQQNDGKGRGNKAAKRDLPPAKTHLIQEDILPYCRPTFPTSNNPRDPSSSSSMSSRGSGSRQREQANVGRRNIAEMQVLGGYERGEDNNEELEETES

- Kd: 5.6 µM
Substance: SRGAP2A:F-BARC hetero-dimer (from UniProt O75044 1-799; P0DJJ0 1-355) (complex)
